The results in this text go back to publication PMC6773860.

Some results are limits rather than exact numbers.

For experiment [1], the target named is human JAM-A on the surface of Lec2-JAM-A cells (human) (UniProt Q9Y624). Briefly: single-virus force spectroscopy (FD-based AFM); virions on the AFM tip; living Lec2-JAM-A cells co-cultured with fluorescent Lec2 cells; PeakForce QNM mode, 37 °C, culture medium, 5% CO2; no glycan added.
Experiment [2] concerns the target His6-tagged JAM-A (junctional adhesion molecule A) (UniProt Q9Y624). Briefly: single-virus force spectroscopy (FD-based AFM); virions or ISVPs covalently linked by a PEG27 spacer to the AFM tip; His6-JAM-A immobilised on an NTA-Ni2+ gold surface; virus buffer (150 mM NaCl, 15 mM MgCl2, 10 mM Tris pH 7.4), ~25 °C; single bonds fitted with the Bell-Evans model; no glycan added.

For experiment [3] the target is unchanged. Briefly: single-virus force spectroscopy (FD-based AFM); as a1, after injection of 1 mM sialylated glycan (Neu5Ac or LSTa).
Experiment [4] concerns the target human JAM-A on the surface of Lec2-JAM-A cells (human) (UniProt Q9Y624). The experiment in a line: single-virus force spectroscopy (FD-based AFM); as a4, the same area scanned again after adding 1 mM LNnT to the culture medium.
The target is the same in experiment [5]. Briefly: single-virus force spectroscopy (FD-based AFM); as a4, the same area scanned again after adding 1 mM Neu5Ac or 1 mM LSTa to the culture medium; also on cells treated before with neuraminidase (40 mUnit/mL, 1 h).
Experiment [6] has as its target His6-tagged junctional adhesion molecule A (UniProt Q9Y624). Briefly: single-virus force spectroscopy (FD-based AFM); virus particles on the AFM tip through a PEG27 linker; His6-JAM-A on an NTA-Ni2+ gold model surface; virus buffer, ~25 °C; after adding 1 mM Neu5Ac; koff of the single bond from a Bell-Evans fit of the DFS plot.
For experiment [7] the target is unchanged. The experiment in a line: single-virus force spectroscopy (FD-based AFM); virus particles on the AFM tip through a PEG27 linker; His6-JAM-A on an NTA-Ni2+ gold model surface; virus buffer, ~25 °C; after adding 1 mM LSTa; koff of the single bond from a Bell-Evans fit of the DFS plot.
Experiment [8] shares this target. Briefly: single-virus force spectroscopy (FD-based AFM); virus particles on the AFM tip through a PEG27 linker; His6-JAM-A on an NTA-Ni2+ gold model surface; virus buffer, ~25 °C; after adding 1 mM LNnT (no sialic acid); koff of the single bond from a Bell-Evans fit of the DFS plot.

As a reminder, the koff is the first-order rate constant of dissociation. Read a low koff as slow dissociation. In experiment [1], “reovirus σ1 attachment protein of mutant strain T3SA− (P204L), on purified virions (from UniProt P03528 1-455) (natural protein)” showed a frequency of adhesion events of 4%. In experiment [2], this substance came in with an off-rate constant (koff) of 0.05 s⁻¹ and a specific binding force of 20 to 130 pN.
As to “reovirus σ1 attachment protein of strain T3SA+, on purified virions (from UniProt P03528 1-455) (natural protein)”, in experiment [3], the overall binding force with 1 mM Neu5Ac or LSTa was less than 400 pN and the simultaneous virus-receptor bonds in the presence of α-SA is less than 3. Besides, the binding frequency after 1 mM LNnT in experiment [4] was determined as 3.9%. Also, in experiment [1], the binding frequency before LNnT worked out at 3.8%, the binding frequency before LSTa was 3.8%, the binding frequency before Neu5Ac is 3.9% and the density of adhesion events turned out to be 3.5%. Also, in experiment [1], the rupture force was in the range of 50 to 400 pN and the simultaneous virus-receptor bonds was less than 4. In experiment [5], the binding frequency after 1 mM LSTa was determined as 4.8%; the binding frequency after 1 mM Neu5Ac turned out to be 4.9%; the increase in binding after Neu5Ac against before, neuraminidase-treated cells is 20%. Further, in experiment [2], the koff came to 0.04 s⁻¹ and the specific binding force was in the range of 20 to 130 pN.
Turning to “reovirus σ1 attachment protein on T3SA+ infectious subvirion particles (from UniProt P03528 1-455) (natural protein)”, the koff in experiment [6] is 0.18 s⁻¹.
In the case of “reovirus σ1 attachment protein on T3SA- virions (P204L) (from UniProt P03528 1-455)”, the koff was determined as 0.24 s⁻¹ in experiment [7], 0.08 s⁻¹ in experiment [6] and 0.07 s⁻¹ in experiment [8].
